{"source": "IntAct's records for PubMed 23376919", "parents": {"B1": {"name": "Interleukin-1 receptor-associated kinase 4 (Mus musculus), Q8R4K2 (parent)", "chain": "MNKPLTPSTYIRNLNVGILRKLSDFIDPQEGWKKLAVAIKKPSGDDRYNQFHIRRFEALLQTGKSPTCELLFDWGTTNCTVGDLVDLLVQIELFAPATLLLPDAVPQTVKSLPPREAATVAQTHGPCQEKDRTSVMPMPKLEHSCEPPDSSSPDNRSVESSDTRFHSFSFHELKSITNNFDEQPASAGGNRMGEGGFGVVYKGCVNNTIVAVKKLGAMVEISTEELKQQFDQEIKVMATCQHENLVELLGFSSDSDNLCLVYAYMPNGSLLDRLSCLDGTPPLSWHTRCKVAQGTANGIRFLHENHHIHRDIKSANILLDKDFTAKISDFGLARASARLAQTVMTSRIVGTTAYMAPEALRGEITPKSDIYSFGVVLLELITGLAAVDENREPQLLLDIKEEIEDEEKTIEDYTDEKMSDADPASVEAMYSAASQCLHEKKNRRPDIAKVQQLLQEMSA", "partner": "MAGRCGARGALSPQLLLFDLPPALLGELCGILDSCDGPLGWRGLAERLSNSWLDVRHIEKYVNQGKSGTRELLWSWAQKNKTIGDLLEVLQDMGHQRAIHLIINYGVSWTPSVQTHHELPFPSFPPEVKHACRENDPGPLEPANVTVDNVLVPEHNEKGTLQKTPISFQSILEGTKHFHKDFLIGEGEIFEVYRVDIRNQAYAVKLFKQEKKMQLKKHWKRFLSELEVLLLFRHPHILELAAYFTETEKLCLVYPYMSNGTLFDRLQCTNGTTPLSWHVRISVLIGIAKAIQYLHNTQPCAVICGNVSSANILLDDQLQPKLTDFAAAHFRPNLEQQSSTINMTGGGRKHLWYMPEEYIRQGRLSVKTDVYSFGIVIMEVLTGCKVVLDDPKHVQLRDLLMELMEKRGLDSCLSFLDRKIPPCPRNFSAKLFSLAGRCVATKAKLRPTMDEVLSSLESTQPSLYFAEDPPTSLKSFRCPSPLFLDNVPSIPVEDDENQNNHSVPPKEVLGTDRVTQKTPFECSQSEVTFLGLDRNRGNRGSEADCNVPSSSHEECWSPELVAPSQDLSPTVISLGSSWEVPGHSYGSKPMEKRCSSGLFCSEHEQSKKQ"}, "B2": {"name": "Interleukin-1 receptor-associated kinase 3 (Mus musculus), Q8K4B2 (parent)", "chain": "B1 partner", "partner": "B1 chain"}, "B3": {"name": "Interleukin-1 receptor-associated kinase 3 (Mus musculus), Q8K4B2 (parent)", "chain": "B1 partner", "partner": "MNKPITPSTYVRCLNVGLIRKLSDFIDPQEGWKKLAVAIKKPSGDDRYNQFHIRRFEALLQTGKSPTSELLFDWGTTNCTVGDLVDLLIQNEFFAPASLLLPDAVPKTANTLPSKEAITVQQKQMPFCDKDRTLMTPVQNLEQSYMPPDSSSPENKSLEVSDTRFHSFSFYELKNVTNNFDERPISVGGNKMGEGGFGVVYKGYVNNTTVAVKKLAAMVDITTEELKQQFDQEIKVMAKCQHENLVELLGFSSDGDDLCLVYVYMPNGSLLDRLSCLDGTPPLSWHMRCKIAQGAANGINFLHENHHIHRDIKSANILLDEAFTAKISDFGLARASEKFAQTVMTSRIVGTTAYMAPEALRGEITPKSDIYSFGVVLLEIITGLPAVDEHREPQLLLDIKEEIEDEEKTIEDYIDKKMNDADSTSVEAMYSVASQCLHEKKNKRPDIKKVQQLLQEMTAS"}}}
{"variants_of": "B1", "conditions": "with irak3_mouse Irak3, Q8K4B2"}
{"variant": "MNKPLTPSTYIRNLNVGILRKLSDDIDPQEGWKKLAVAIKKPSGDDRYNQFHIRRFEALLQTGKSPTCELLFDWGTTNCTVGDLVDLLVQIELFAPATLLLPDAVPQTVKSLPPREAATVAQTHGPCQEKDRTSVMPMPKLEHSCEPPDSSSPDNRSVESSDTRFHSFSFHELKSITNNFDEQPASAGGNRMGEGGFGVVYKGCVNNTIVAVKKLGAMVEISTEELKQQFDQEIKVMATCQHENLVELLGFSSDSDNLCLVYAYMPNGSLLDRLSCLDGTPPLSWHTRCKVAQGTANGIRFLHENHHIHRDIKSANILLDKDFTAKISDFGLARASARLAQTVMTSRIVGTTAYMAPEALRGEITPKSDIYSFGVVLLELITGLAAVDENREPQLLLDIKEEIEDEEKTIEDYTDEKMSDADPASVEAMYSAASQCLHEKKNRRPDIAKVQQLLQEMSA", "note": "[F25D]", "effect of a mutation on the interaction": "decreasing interaction"}
{"variants_of": "B2", "conditions": "with irak4_mouse Irak4, Q8R4K2"}
{"variant": "E71A;Q78G", "effect of a mutation on the interaction": "disrupting interaction"}
{"variants_of": "B2", "conditions": "with irak4_mouse Irak4, Q8R4K2", "remark": "another data set of the same source"}
{"variant": "Q78G", "effect of a mutation on the interaction": "decreasing interaction"}
{"variants_of": "B2", "conditions": "with irak4_mouse Irak4, Q8R4K2", "remark": "another data set of the same source"}
{"variant": "W74A", "effect of a mutation on the interaction": "disrupting interaction"}
{"variants_of": "B2", "conditions": "with irak4_mouse Irak4, Q8R4K2", "remark": "another data set of the same source"}
{"variant": "E71A", "effect of a mutation on the interaction": "decreasing interaction"}
{"variants_of": "B3", "conditions": "with irak4_human IRAK4, Q9NWZ3"}
{"variant": "E71A", "effect of a mutation on the interaction": "decreasing interaction"}
{"variants_of": "B3", "conditions": "with irak4_human IRAK4, Q9NWZ3", "remark": "another data set of the same source"}
{"variant": "W74A", "effect of a mutation on the interaction": "disrupting interaction"}
{"variants_of": "B3", "conditions": "with irak4_human IRAK4, Q9NWZ3", "remark": "another data set of the same source"}
{"variant": "E71A;Q78G", "effect of a mutation on the interaction": "decreasing interaction"}
{"variants_of": "B3", "conditions": "with irak4_human IRAK4, Q9NWZ3", "remark": "another data set of the same source"}
{"variant": "Q78G", "effect of a mutation on the interaction": "decreasing interaction"}
